Reference: US20210338733A1 (University of Pennsylvania, published 2021)

Target: T1, TnMUC1 (aberrantly glycosylated Tn glycoform of MUC1) as expressed by tumor cells (human, UniProt P15941 24-1255, Tn (GalNAca1-O-Ser/Thr) glycans; sites not stated)
T1 construct: whole, on cells; One molecule is used for all TnMUC1-positive target cells; In the IHC of breast tumor tissue the staining was cytoplasmic and/or membranous; also called TnMUC1 antigen; TnMUC1+ target cells (Jurkat E6-1, Hs766T, MCF7, breast cancer cell lines and tissue)
Experiment: immunohistochemistry on breast cancer tissue

T1 sequence (P15941 24-1255): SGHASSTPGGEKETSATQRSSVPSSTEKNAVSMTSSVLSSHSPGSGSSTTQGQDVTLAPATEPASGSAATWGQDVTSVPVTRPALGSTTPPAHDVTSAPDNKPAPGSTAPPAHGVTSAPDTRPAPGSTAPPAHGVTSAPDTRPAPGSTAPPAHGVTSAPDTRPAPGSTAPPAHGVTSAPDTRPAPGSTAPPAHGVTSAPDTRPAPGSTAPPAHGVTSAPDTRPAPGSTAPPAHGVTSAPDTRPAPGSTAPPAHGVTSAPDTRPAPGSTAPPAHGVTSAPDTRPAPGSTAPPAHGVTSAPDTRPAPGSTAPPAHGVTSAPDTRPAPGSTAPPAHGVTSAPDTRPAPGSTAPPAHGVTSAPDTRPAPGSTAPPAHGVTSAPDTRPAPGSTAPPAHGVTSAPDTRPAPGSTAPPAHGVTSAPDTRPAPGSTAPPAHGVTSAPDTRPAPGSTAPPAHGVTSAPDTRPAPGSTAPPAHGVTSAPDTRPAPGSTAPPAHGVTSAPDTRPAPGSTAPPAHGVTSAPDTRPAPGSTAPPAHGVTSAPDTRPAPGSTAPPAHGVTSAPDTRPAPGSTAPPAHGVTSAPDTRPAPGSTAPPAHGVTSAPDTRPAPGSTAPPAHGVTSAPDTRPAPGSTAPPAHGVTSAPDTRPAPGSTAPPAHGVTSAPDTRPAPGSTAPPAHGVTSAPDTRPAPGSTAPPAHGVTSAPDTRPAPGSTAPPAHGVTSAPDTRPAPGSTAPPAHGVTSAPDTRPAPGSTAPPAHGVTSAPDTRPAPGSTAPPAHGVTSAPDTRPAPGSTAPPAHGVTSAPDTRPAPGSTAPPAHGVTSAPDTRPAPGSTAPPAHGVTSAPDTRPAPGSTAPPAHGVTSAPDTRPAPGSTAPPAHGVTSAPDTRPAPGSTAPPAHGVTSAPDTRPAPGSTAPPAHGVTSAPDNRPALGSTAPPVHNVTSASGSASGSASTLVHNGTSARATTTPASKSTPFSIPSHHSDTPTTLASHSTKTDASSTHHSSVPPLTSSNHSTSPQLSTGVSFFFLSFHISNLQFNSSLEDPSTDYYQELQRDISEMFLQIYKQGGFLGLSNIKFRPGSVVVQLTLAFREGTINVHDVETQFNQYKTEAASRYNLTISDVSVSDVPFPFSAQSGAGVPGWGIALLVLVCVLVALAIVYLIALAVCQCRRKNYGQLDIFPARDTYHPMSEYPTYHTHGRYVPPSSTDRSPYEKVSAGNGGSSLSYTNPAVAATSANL

B1: Anti-TnMUC1 murine monoclonal antibody clone 5E5 (antibody, V domains shown)
VH: QVQLQQSDAELVKPGSSVKISCKASGYTFTDHAIHWVKQKPEQGLEWIGHFSPGNTDIKYNDKFKGKATLTVDRSSSTAYMQLNSLTSEDSAVYFCKTSTFFFDYWGQGTTLTVSS
VL: ELVMTQSPSSLTVTAGEKVTMICKSSQSLLNSGDQKNYLTWYQQKPGQPPKLLIFWASTRESGVPDRFTGSGSGTDFTLTISSVQAEDLAVYYCQNDYSYPLTFGAGTKLELK
notes: also called 5E5 mAb; mAb 5E5
Does B1 bind?
Result: binds
